Assays:
[1] = target: EcoRI (Escherichia coli RY13) (UniProt P00642); experiment: cleavage_in_vitro; conditions: NEB3, 10 mM MgCl2, 37 C
[2] = tested on: T1, SspI-HF Y98F (Sphaerotilus species); experiment: cleavage_in_vitro; conditions: NEB4, 10 mM Mg acetate, 37 C
T1 sequence: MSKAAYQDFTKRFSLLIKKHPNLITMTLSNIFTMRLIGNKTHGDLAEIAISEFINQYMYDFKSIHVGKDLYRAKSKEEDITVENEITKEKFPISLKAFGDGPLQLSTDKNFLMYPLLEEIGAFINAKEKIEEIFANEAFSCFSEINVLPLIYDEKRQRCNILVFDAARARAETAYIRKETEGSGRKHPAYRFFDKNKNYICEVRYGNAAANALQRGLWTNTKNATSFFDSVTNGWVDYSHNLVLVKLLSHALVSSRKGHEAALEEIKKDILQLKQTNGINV

## lambda DNA
[1]
  activity (fidelity index): 250
[2]
  activity (fidelity index): 500

From patent US20130115676
